How the values were obtained:
[1] = biological target: Flag-Kr-h1^S154D (Locusta migratoria)
[2] = biological target: Flag-Kr-h1 (Krüppel-homolog 1 of Locusta migratoria, wildtype, methoprene-exposed) (Locusta migratoria)
[3] = biological target: Flag-Kr-h1^S154D (Locusta migratoria); remark: listed apart in the source

Row | RL36 reporter activity (dual luciferase, pGL4.10-4×RL36 -1647 to -1632) in S2 cells, co-expression of Flag-CBP and Flag-Kr-h1^S154D (fold increase) [1] | E93 reporter activity (dual luciferase, pGL4.10-4×E93 -623 to -606) in S2 cells with 10 uM methoprene, co-expression of Flag-CtBP and Flag-Kr-h1 [2] [% reduction] | E93 reporter activity (dual luciferase, pGL4.10-4×E93 -623 to -606) in S2 cells, co-expression of Flag-CtBP and Flag-Kr-h1^S154D [3] [% reduction] | Substance
1 | 1.7 |  |  | Flag-CBP (CREB-binding protein of Locusta migratoria) (natural protein)
2 |  | 47 | 50 | Flag-CtBP (C-terminal binding protein of Locusta migratoria) (natural protein)
